Source: US20200113969A1

Assays:
[1] = target: MMP-9 (commercial enzyme, Sigma) (UniProt P14780); experiment: cell-based or functional assay
[2] = target: MMP-9 present in HT29 extracellular media (human) (UniProt P14780); experiment: cell-based or functional assay
MMP-9 present in HT29 extracellular media (human), sequence (P14780 20-707): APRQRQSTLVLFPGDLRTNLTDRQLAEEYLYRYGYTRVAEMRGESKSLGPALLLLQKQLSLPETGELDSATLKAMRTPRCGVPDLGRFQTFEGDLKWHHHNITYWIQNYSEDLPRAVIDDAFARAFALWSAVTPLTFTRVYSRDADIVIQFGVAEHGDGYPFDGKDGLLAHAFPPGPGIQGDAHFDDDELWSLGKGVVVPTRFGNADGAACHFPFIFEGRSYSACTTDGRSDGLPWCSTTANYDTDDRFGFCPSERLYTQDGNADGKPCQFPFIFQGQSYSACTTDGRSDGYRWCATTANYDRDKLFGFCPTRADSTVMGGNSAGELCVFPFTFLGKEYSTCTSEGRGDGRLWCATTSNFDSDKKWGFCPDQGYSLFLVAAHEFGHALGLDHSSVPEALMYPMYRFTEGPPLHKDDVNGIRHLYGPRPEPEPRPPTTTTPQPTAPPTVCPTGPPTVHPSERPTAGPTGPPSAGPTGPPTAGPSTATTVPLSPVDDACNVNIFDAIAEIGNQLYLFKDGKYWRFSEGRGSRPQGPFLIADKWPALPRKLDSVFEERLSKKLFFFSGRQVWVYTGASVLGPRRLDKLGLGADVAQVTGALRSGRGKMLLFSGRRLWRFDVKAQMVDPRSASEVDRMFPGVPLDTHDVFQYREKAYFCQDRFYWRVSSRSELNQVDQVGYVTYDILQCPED

MMP-9 (commercial enzyme, Sigma), sequence (P14780 107-707 limits assumed): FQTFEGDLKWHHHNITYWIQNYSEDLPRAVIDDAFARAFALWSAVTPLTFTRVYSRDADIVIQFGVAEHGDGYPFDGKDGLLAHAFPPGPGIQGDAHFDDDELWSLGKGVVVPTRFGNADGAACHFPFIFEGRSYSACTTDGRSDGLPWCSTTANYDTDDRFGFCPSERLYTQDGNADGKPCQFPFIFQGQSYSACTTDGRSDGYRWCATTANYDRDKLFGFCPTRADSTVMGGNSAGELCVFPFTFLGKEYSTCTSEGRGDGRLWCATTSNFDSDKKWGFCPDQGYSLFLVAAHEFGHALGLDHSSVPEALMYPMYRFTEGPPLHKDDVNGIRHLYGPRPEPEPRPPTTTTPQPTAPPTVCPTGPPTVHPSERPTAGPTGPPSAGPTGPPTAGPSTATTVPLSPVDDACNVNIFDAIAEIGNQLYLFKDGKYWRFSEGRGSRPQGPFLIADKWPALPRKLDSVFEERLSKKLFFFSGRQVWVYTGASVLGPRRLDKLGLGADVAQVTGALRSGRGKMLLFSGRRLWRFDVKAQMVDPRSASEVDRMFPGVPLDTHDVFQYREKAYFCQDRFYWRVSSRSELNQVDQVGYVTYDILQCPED

deflamin isolated from Lupinus albus seeds (from UniProt Q53HY0 31-531; F5B8W8 73-152)
gelatinolytic activity of MMP-9 on DQ-gelatin, deflamin at 100 µg/mL [1]: > 90%
EC50, MMP inhibition (gelatinolytic activity of HT29 media, DQ-gelatin) [2]: 10 µg/mL
MIC, MMP inhibition (gelatinolytic activity of HT29 media, DQ-gelatin) [2]: < 5 µg/mL

fraction 4 of the size exclusion chromatography (Superdex 75) of the L. albus total protein extract
MMP-9 inhibitory activity, DQ gelatin assay [1]: 100%
